Legend:
[1] = system: HT1080 human fibrosarcoma cells; assay: Cellular uptake study; type: cell-based; conditions: for Cellular accumulation (radioactivity in tumor cells): 5×10^5 HT1080 cells, FBS-free DMEM, 37 kBq probe, 30 min incubation, radioactivity counting, Fig. 3a
Method: HT1080 human fibrosarcoma cells were purchased from American Type Culture Collection (ATCC, Manassas, VA USA) and cultured in DMEM with low glucose (Invitrogen), 10% fetal bovine serum (FBS), and penicillin/streptomycin. MMP-2 cDNA was cloned into the pENTR vector (Invitrogen) and inserted into the pLenti6 vector (Invitrogen) as previously described, [7]. […] Protein quantitation was performed by BCA protein assay (Thermo Fisher Scientific, Inc. Rockford, IL USA). The cellular uptake study of MDAP3000 pretreated with activated MMP-2 (63 nM) in the presence or absence of GM6001 (100 µM) was performed as described above.

[2] = molecular target: T1, Human-recombinant MMP-2 protein (Homo sapiens, UniProt P08253); assay: Cleavage assay; type: biochemical; conditions: activated MMP-2 1–5 nM, 370 kBq probe, 37°C, 2 hr, pH 7.5 assay buffer, RP-HPLC, Fig. 3b
T1 construct: purchased R & D Systems, Inc. 902-MP-010
T1 sequence (P08253 110-660): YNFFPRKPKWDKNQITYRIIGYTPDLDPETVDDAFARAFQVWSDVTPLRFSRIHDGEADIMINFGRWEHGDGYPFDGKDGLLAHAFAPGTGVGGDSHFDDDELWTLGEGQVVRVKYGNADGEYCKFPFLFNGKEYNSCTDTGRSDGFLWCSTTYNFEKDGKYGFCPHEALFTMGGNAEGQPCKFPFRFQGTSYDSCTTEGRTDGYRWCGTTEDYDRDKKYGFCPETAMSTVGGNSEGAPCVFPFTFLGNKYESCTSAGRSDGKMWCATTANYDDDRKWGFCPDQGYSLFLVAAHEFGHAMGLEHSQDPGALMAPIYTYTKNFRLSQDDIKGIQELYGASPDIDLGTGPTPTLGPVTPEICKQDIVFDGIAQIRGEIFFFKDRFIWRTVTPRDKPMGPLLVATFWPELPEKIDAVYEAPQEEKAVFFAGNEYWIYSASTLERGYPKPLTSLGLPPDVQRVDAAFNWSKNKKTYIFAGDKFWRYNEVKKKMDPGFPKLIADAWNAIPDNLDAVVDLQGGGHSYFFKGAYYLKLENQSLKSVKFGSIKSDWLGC
Method: Human-recombinant MMP-2 protein (902-MP-010, R & D Systems, Inc., Minneapolis, MN USA) was activated with p-aminophenylmercuric acetate (1 mM) in assay buffer (50 mM Tris-HCl, 150 mM NaCl, 10 mM CaCl2, 5 µM ZnCl2, 0.02% Brij 35, pH 7.5). MDAP1000, MDAP3000, and MDAP5000 (370 kBq) were incubated at 37°C for 2 hr with activated MMP-2 (1–5 nM) and a MMP inhibitor (0 or 100 µM, GM6001, Merck KGaA, Darmstadt, Germany). The reaction was quenched by addition of methanol, and the percentage of cleaved peptide was estimated by RP-HPLC.

[3] = type: physicochemical; conditions: pH 7.4
Method: The experimental determination of probe partition coefficients (log P values) was performed in 1-octanol and 0.02 M phosphate buffer pH 7.4 where the two phases were pre-saturated with each other. 1-Octanol (200 µl) and phosphate buffer (200 µl) were pipetted into LoBind Eppendorf tubes containing 0.37 MBq of probes. The tube was vortexed for 10 seconds, and centrifuged (5 min, 4000×g). Aliquots (50 µl) from the 1-octanol and buffer phases were transferred into two test tubes for radioactivity counting with a NaI well-type scintillation counter (1470 WIZARD, Perkin Elmer, Kanagawa, Japan). The partition coefficient was calculated using the equation P = (counts/µl in 1-octanol)/(counts/µl in buffer).

[4] = system: HT1080 tumor bearing mice; set-up: species or system mouse (Balb/c nu-nu); conditions: mouse, in vivo, iv
Method: (§1) […]3000 and […] (37 kBq, 100 μl in PBS including 3% bovine serum albumin and 0.1% Tween 80) were injected intravenously into the tail vein of tumor bearing mice. The mice were sacrificed at various post-injection time points (n = 3 for each time point), and the organs of interest including the tumor tissues were collected for determination of the weights. The radioactivity of each sample was measured with a NaI well-type scintillation counter. From fitting to the two phase decay curves for blood radioactivity data analyzed by GraphPad Prism 6 (GraphPad Software, San Diego, CA), whole body pharmacokinetic parameters such as blood half-lives, distribution volume, mean residence time and total clearance were calculated for each of the probes and the values compared. Simple pharmacokinetic analysis using a single tissue compartment model was applied to the biodistribution data to calculate rate constants (K1 and k2) for radioactivity transfer from blood to tumor and clearance from tumor to blood by PMOD version 3.2. In addition, MDAP3000 (7.4 MBq in 200 μl) was injected intravenously into the tail vein of tumor bearing mice for metabolite analysis in tumors excised 3, 6, and 24 hr post injection (n = 2 each). Tumor homogenates were prepared on ice and insoluble material was removed by centrifugation after methanol treatment. The resulting supernatant was analyzed by RP-HPLC.

[5] = system: HT1080 tumor xenograft; set-up: species or system mouse (Balb/c nu-nu); conditions: mouse, in vivo
Method: as §1

Substance: Palmitoyl-Dap(p-SCN-Bn-DTPA-^111In)-10-Adc-Gly-Pro-Leu-Gly-Val-Arg-Gly-Lys(ivDde)-PEG1000 [MDAP1000]
- Cellular accumulation (radioactivity in tumor cells) [1]: high radioactivity accumulation
- Cleavage by MMP-2 [2]: concentration-dependent manner
- log P (partition coefficient) [3]: −0.56±0.13
- Blood half-life, Fast [4]: 4.0×10 min
- Blood half-life, Slow [4]: 43.3 h
- Clearance (total clearance) [4]: 0.0083 mL/min
- Distribution volume [4]: 1.71 mL
- Mean residence time [4]: 210 min
- K1, rate constant for transfer from blood to tumor, Mean ([5]; iv): 0.00071 mL/g/min
- k2, rate constant for clearance from tumor to blood, Mean ([5]; iv): 0.0011 min⁻¹

Substance: Palmitoyl-Dap(p-SCN-Bn-DTPA-^111In)-10-Adc-Gly-Pro-Leu-Gly-Val-Arg-Gly-Lys(ivDde)-PEG3000 [MDAP3000]
- Cellular accumulation (radioactivity in tumor cells) [1]: significantly lower radioactivity
- Increased cellular uptake of MMP-2 pretreated probe with additional MMP inhibitor ([1]; HT1080 cells, activated MMP-2 (63 nM) plus GM6001 (100 µM), Fig. 3c): completely blocked
- Cellular accumulation of probe pretreated with MMP-2 ([1]; HT1080 cells, probe pretreated with activated MMP-2 (63 nM), 30 min, Fig. 3c): accumulated in cells to higher levels
- Cleavage by MMP-2 [2]: concentration-dependent manner
- log P (partition coefficient) [3]: −0.95±0.12
- Blood half-life, Fast [4]: 5.6×10 min
- Blood half-life, Slow [4]: 7.17 h
- Clearance (total clearance) [4]: 0.0079 mL/min
- Distribution volume [4]: 1.94 mL
- Mean residence time [4]: 250 min
- Slower washout rate from the tumor (k2) compared to MDAPCV [5]: approximately seven-fold
- K1, rate constant for transfer from blood to tumor, Mean ([5]; iv): 0.0013 mL/g/min

From paper PMC4092090, “Investigation of a MMP-2 Activity-Dependent Anchoring Probe for Nuclear Imaging of Cancer” (PLoS ONE, 2014)
